For 2 molecules, EC50 results are on record in US20230406937A1 (JANUX THERAPEUTICS, published 2023).

One assay deals with T1, biotinylated human CD28 (human, UniProt P10747 19-152, limits assumed, biotinylated (site not stated)).
T1 construct: also called Human CD28-Biotin
Briefly: ELISA, biotinylated antigen captured on neutravidin plates, HRP secondary antibody. Here is the method: (§1) The polypeptide complex molecules were evaluated for their ability to bind human PDL1 or CD28 in a standard enzyme linked immunosorbent assay (ELISA) format. […] Polypeptide complex molecules diluted in buffer were then added to the antigen coated plates. Bound polypeptide complex was detected using a standard horse radish peroxidase conjugate secondary antibody.
Background: In an ELISA, binding on a coated surface is turned into a signal by an enzyme label.

In another assay the target is T2, biotinylated human PD-L1 (human, UniProt Q9NZQ7 19-238, limits assumed, biotinylated (site not stated)).
T2 construct: also called Human PDL1-biotin
Described as above. The protocol:
as §1

B1: Ab-6 (bispecific antibody)
light: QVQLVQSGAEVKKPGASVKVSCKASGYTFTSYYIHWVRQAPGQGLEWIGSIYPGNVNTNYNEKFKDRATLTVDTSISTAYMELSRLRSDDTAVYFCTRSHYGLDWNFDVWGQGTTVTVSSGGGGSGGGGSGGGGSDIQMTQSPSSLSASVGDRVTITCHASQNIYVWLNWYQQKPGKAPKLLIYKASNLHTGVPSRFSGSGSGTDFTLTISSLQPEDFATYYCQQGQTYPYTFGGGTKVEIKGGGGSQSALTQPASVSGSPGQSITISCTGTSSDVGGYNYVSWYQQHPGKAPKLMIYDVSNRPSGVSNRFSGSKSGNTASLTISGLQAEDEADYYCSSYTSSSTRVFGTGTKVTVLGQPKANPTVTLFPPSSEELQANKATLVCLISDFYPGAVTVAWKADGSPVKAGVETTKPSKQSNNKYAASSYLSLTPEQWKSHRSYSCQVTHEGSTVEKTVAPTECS
heavy: EVQLLESGGGLVQPGGSLRLSCAASGFTFSSYIMMWVRQAPGKGLEWVSSIYPSGGITFYADTVKGRFTISRDNSKNTLYLQMNSLRAEDTAVYYCARIKLGTVTTVDYWGQGTLVTVSSASTKGPSVFPLAPSSKSTSGGTAALGCLVKDYFPEPVTVSWNSGALTSGVHTFPAVLQSSGLYSLSSVVTVPSSSLGTQTYICNVNHKPSNTKVDKKVEPKSC
notes: Anti-CD28 scFv fused to the light chain of anti-PD-L1 Fab 3; no Fc
As to B1, the EC50 – broadly, the concentration needed to bring the measured effect to its halfway point – with biotinylated human CD28 turned out to be 1890 pM; with biotinylated human PD-L1 it was 280 pM.

B2: Ab-5 (bispecific antibody)
light: QSALTQPASVSGSPGQSITISCTGTSSDVGGYNYVSWYQQHPGKAPKLMIYDVSNRPSGVSNRFSGSKSGNTASLTISGLQAEDEADYYCSSYTSSSTRVFGTGTKVTVLGQPKANPTVTLFPPSSEELQANKATLVCLISDFYPGAVTVAWKADGSPVKAGVETTKPSKQSNNKYAASSYLSLTPEQWKSHRSYSCQVTHEGSTVEKTVAPTECS
heavy: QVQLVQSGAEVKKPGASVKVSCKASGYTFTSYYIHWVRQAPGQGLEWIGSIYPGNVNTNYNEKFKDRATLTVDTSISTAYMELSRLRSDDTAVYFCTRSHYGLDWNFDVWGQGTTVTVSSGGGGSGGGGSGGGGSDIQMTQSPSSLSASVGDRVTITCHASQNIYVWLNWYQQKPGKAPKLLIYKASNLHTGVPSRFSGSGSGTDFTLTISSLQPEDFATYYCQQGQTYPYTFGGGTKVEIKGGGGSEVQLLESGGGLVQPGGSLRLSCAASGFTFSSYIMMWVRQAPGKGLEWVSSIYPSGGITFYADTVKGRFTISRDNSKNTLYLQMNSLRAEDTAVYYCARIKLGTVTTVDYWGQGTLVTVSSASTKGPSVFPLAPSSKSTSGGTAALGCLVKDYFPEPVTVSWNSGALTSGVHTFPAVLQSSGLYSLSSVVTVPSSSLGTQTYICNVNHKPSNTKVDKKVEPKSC
notes: Anti-CD28 scFv fused to the heavy chain of anti-PD-L1 Fab 3; no Fc
For B2, the results for the EC50 with biotinylated human CD28 and in the assay with biotinylated human PD-L1 were 910 pM and 110 pM, respectively.
